Test results as given in patent US9212226B2, “Amino acid sequences directed against CXCR4 and other GPCRs and compounds comprising the same” (Ablynx N.V., priority 2008, dated 2015).
Values belong to the molecule of their own block, whether it stands above or below them.

Target: CXCR4 (Homo sapiens, UniProt P61073)
Test: [125I]-CXCL12 competition binding on membranes from HEK293T cells transiently expressing CXCR4
Conditions: for affinity to CXCR4: in words; for displacement of specifically bound [125I]-CXCL12: purified ligands, highest Nanobody test concentration 0.5 μM; for Binding (binding efficiency, competition binding with [125I]-CXCL12): screening of Nanobody clone pools
Procedure: HEK293T cells were maintained at 37° C. in a humidified 5% CO2, 95% air atmosphere in Dulbecco's modified Eagle's medium (DMEM) containing 2 mM L-glutamine, 50 IU/ml penicillin, 50 μg/ml streptomycin, and 10% (v/v) fetal calf serum. Jurkat cells were cultured in a humidified 5% CO2, 95% air atmosphere in a 1:1 mixture of Dulbecco's modified Eagle's medium (DMEM) and Ham's F12 medium containing 2 mM L-glutamine, 50 IU/ml penicillin, 50 μg/ml streptomycin, and 10% (v/v) fetal calf serum. […] [^125 I]-Labelling— Radiolabeling of Nanobodies with ^125I was performed using the Iodo-gen method (Pierce, Rockford, Ill.) according to the manufacturer's protocol. ^125I-labeled Nanobodies was separated from free iodine (>99%) using a Sephadex G-25 gel filtration column (Amersham Biosciences, Piscataway, N.J.). […] Competition Binding Assays— Membranes from HEK293T cells transiently expressing CXCR3 or CXCR4 were prepared 48 h after transfection as follows. Cells were washed and scraped from the cell culture dishes with ice-cold PBS containing 1 mm EDTA. The scraped cells were pelleted at 1500×g for 10 min at 4° C. The pellet was washed and then resuspended in ice-cold membrane buffer (15 mM Tris, pH 7.5, 1 mM EGTA, 0.3 mM EDTA, and 2 mM MgCl2). The cell suspension was homogenized by 10 strokes at 1200 rpm using a Teflon-glass homogenizer and rotor and further subjected to three freeze-thaw cycles using liquid nitrogen. Membranes were separated by centrifugation at 40,000 g for 25 min at 4° C. The membrane pellet was washed and resuspended in ice-cold Tris-sucrose buffer (20 mM Tris, pH 7.4, and 250 mM sucrose) and frozen in liquid nitrogen. The total protein was determined using a Bradford assay (Bio-Rad). […] Membranes were then harvested over polyethylenimine (0.5%)-treated Whatman GF/C filter plates and washed three times with ice cold binding buffer containing 500 mM NaCl. Plates were counted by liquid scintillation. Inositol Phosphate Accumulation Assay— 24 hours post transfection with pcDNA3.1-CXCR4 and pcDNA1-HA-mG {alpha} qi5 (see Verzijl et al, 2008 supra), 250.000 cells were seeded into 24-wells plates and labelled overnight using inositol-free minimal essential medium supplemented with 1 μCi myo-[2-^3H]-inositol. The next day, the cells were washed once to remove not incorporated myo-[2-^3H]-inositol. […] In agonist experiments, the cells were directly stimulated with test compounds and LiCl (10 mM) in assay buffer for 2 h at 37° C. The stimulation was stopped by aspirating the stimulation medium and adding ice-cold 10 mM formic acid. The accumulated inositol phosphates were isolated by anion exchange chromatography and counted by liquid scintillation. CRE Reporter Gene Assay— HEK239T cells were transfected with pCRE/β-galactosidase (Chen W, Shields T S, Stork P J S, Cone R D (1995) Anal Biochem 226:349-354) and plasmids (pcDEF3 or pcDNA3.1) encoding the indicated receptors. 40,000 transfected cells per well were seeded into 96 well plates and grown in DMEM supplemented with 10% fetal calf serum. The medium was replaced 32 h after transfection by serum-free DMEM supplemented with 0.5% bovine serum albumin and ligands as indicated. […] The β-galactosidase activity was determined by the measurement of absorption at 420 nm with a PowerwaveX340 plate reader (Bio-Tek Instruments Inc., Winooski, Vt.) after incubation with the assay buffer when the OD420 value for forskolin (3 μM) controls reached 0.4-0.6. Chemotaxis Assay— The chemotactic responsiveness of Jurkat 3D cells was assessed using ChemoTx™ plates (Receptor Technologies Ltd., Oxon, UK) in which a upper cell-containing compartment is separated from a lower chemoattractant-containing compartment by a polyvinylpyrollidone-free polycarbonate filter with 5-μm pores. Cells were harvested, washed and resuspended in RPMI containing 0.5% bovine serum albumin and then loaded to 150,000 cells per well in a volume of 25 μl into the upper compartment of the chemotaxis chamber.

[1] = membranes from HEK293T cells transiently expressing CXCR4, mean ± S.E.M.
[2] = membranes from HEK293T cells transiently expressing CXCR4

Sequence of CXCR4 (P61073 whole entry): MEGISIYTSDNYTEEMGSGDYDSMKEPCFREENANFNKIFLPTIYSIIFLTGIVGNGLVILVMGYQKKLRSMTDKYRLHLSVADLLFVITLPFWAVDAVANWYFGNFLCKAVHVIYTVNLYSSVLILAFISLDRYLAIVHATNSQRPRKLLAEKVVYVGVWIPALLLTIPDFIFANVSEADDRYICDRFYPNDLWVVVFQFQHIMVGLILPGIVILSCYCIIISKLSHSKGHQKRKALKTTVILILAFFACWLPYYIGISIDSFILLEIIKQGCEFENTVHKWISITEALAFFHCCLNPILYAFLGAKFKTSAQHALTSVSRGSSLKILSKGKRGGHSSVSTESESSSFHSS

affinity to CXCR4: low nanomolar range
Displacem. (%) of [125I]-CXCL12 (maximal displacement) [1]: 93 ± 5%
pKi, [125I]-CXCL12 [1]: 8.01 ± 0.12
displacement of specifically bound [125I]-CXCL12: fully displace
Binding (binding efficiency, competition binding with [125I]-CXCL12) [2]: ++ (++ = 70-100%)
B1: 238D2: Nanobody (VHH) raised against human CXCR4, SEQ ID NO: 238 (protein)
VHH: EVQLVESGGGLVQTGGSLRLSCAASGFTFSSYAMSWVRQAPGKGLEWVSGIKSSGDSTRYAGSVKGRFTISRDNAKNMLYLQMYSLKPEDTAVYYCAKSRVSRTGLYTYDNRGQGTQVTVSS
modifications: Nanobody, Nanobody constructs or fragments thereof

affinity to CXCR4: low nanomolar range
displacement of specifically bound [125I]-CXCL12: fully displace
Binding (binding efficiency, competition binding with [125I]-CXCL12) [2]: ++ (++ = 70-100%)
B2: 238D4: Nanobody (VHH) raised against human CXCR4, SEQ ID NO: 239 (protein)
VHH: EVQLMESGGGLVQAGGSLRLSCAASGRTFNNYAMGWFRRAPGKEREFVAAITRSGVRSGVSAIYGDSVKDRFTISRDNAKNTLYLQMNSLKPEDTAVYTCAASAIGSGALRRFEYDYSGQGTQVTVSS
modifications: Nanobody, Nanobody constructs or fragments thereof
